# T1: HUB2, At1g55250, Arabidopsis thaliana (Arabidopsis thaliana, UniProt Q9C895 1-900)
# T1 construct: As prey the endogenous protein of Arabidopsis cell culture; as bait N-terminal GS-TAP fusion; in yeast two-hybrid an AD fusion; also called AAG51572.1
# T1 sequence: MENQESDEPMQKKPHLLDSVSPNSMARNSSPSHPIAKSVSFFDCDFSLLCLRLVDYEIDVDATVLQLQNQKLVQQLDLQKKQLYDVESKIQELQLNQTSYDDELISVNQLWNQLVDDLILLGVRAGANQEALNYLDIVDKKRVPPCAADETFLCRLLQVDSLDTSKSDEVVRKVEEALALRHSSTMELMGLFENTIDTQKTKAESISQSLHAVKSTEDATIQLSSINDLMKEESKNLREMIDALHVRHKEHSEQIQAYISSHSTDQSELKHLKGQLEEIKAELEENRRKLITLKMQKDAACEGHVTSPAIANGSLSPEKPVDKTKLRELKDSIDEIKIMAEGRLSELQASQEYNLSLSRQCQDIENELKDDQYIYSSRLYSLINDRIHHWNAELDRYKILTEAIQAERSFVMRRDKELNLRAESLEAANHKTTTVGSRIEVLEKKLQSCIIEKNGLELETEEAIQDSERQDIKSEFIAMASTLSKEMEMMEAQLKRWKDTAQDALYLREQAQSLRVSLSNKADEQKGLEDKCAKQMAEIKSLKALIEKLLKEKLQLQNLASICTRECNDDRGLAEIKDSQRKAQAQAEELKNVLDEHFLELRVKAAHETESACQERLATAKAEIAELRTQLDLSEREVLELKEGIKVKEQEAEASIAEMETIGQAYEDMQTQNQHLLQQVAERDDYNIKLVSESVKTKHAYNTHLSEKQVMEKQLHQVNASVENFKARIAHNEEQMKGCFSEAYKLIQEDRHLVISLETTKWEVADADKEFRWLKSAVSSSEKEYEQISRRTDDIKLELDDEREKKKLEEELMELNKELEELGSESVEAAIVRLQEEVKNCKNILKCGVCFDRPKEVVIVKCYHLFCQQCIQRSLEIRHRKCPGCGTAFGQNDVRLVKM
# T2: HUB1 (Histone Monoubiquitination 1), At2g44950, Arabidopsis thaliana (Arabidopsis thaliana, UniProt Q8RXD6 1-878)
# T2 construct: Full length HUB1; In the TAP experiments N-terminally fused to the TAP tag or the GS-TAP tag; in yeast two-hybrid fused to AD (pDEST22) or BD (pDEST32); all these constructs are written under this one entry; also called HUB1fl; full length HUB1
# T2 sequence: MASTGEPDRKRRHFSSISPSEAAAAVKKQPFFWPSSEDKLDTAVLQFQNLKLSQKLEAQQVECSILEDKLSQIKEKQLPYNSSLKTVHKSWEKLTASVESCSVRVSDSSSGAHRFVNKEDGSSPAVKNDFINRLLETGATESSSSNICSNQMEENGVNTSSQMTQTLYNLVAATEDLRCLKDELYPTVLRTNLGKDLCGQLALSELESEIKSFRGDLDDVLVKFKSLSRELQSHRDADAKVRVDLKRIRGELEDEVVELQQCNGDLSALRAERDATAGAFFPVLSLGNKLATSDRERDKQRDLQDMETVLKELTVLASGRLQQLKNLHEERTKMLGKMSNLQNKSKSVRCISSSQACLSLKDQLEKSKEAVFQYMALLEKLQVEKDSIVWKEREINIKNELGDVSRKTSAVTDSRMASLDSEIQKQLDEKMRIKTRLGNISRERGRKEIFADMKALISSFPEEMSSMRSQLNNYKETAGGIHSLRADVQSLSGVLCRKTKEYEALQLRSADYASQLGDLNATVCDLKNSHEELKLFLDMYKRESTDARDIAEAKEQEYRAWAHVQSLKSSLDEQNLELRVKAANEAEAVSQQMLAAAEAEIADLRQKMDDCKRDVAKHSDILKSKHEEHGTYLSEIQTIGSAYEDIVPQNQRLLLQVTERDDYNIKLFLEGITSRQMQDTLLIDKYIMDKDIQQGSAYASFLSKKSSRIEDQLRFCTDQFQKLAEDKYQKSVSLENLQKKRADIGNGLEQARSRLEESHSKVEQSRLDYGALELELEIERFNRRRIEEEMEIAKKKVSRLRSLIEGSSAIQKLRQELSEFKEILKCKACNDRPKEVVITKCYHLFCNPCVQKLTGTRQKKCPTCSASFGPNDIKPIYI
# T3: LUG/RON2, At4G32551 (Arabidopsis thaliana, UniProt Q9FUY2 1-931)
# T3 construct: Endogenous prey in TAP; fusion protein in yeast two-hybrid
# T3 sequence (looked up): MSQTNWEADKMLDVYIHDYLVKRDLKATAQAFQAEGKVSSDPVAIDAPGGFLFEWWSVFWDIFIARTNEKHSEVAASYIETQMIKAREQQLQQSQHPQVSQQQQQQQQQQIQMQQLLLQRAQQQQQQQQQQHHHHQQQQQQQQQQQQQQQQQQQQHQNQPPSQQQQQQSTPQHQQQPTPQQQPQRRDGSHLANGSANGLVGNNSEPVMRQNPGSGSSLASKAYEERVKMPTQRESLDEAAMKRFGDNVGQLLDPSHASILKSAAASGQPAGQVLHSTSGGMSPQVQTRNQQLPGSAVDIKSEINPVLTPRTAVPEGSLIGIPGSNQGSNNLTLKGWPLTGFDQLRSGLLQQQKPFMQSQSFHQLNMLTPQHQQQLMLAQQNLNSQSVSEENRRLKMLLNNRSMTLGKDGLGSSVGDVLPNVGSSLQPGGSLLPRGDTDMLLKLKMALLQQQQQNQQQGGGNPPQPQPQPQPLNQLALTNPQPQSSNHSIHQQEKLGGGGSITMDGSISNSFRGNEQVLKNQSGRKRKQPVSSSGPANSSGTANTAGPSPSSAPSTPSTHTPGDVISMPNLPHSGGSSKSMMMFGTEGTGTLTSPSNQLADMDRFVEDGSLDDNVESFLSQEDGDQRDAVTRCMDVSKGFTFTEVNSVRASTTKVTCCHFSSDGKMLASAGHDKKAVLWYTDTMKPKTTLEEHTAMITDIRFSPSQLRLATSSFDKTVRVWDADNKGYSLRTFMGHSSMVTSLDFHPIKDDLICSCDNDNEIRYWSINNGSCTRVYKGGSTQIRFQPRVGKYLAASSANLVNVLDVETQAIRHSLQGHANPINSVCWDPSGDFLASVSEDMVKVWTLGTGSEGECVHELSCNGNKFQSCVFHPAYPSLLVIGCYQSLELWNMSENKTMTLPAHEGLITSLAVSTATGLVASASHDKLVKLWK
# Legend:
# [1] = target: T1, HUB2, At1g55250, Arabidopsis thaliana; assay: tandem affinity purification with NTAP-tagged HUB1pm
# Procedure: (§1) Because the RING proteins have their functionally important domain at the C-terminus, an N-terminal fusion was prepared instead of the traditional C-terminal fusion by cloning both full length and the point mutant form of HUB1 (HUB1pm, HUB1fl). The Arabidopsis cell cultures were transformed with the two constructs and cultivated on 10 litre scale, harvested and purified by TAP (Van Leene et al., Mol. Cell. Proteomics 6, 1226-38, 2007). The protein extracts were separated on 1-D SDS-PAGE gels and isolated from gel for protein identification by mass spectrometry (Laukens et al., Proteomics. 4, 720-7, 2004, Van Leene et al., 2007). Two cut offs were used resulting in “confirmed” and “to be confirmed” candidate interactor lists (Table I).
# (§2) In the data set of confirmed interactors TAP HUB1 and HUB2 were present, […] the dimer formation between the homologues. In addition, the acetyltransferase GCN5, RNA binding proteins and a KH domain protein were identified as HUB1 interacting proteins. Most of these proteins are known to be localized in nucleus or nucleoli. GFP constructs of HUB1 have also been localized to nucleus (Liu et al., 2007). When HUB1pm was used for TAP purification no HUB2 could be identified as an interacting protein.
# [2] = target: T2, HUB1 (Histone Monoubiquitination 1), …; assay: TAP with N-terminally TAP-tagged HUB1, mass spectrometry; column To be confirmed (interacted only once)
# Procedure: as §1, §2
# LUG/RON2, At4G32551 = target: T3, LUG/RON2, At4G32551; assay: yeast two-hybrid
# [3] = target: UBC2, At2g02760 (Arabidopsis thaliana) (UniProt P42745); assay: GS-TAP purification + MALDI-TOF-TOF MS, bait UBC2 (second block, as the rows stand); expectance is the MS identification score
# Sequence of UBC2, At2g02760 (Arabidopsis thaliana) (P42745 whole entry): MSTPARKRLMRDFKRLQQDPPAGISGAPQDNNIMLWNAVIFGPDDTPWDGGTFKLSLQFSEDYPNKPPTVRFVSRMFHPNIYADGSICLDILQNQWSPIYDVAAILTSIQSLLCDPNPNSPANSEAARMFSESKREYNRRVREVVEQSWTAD
binding result [1],binding result [2],"binding result (LUG/RON2, At4G32551)",Expectance [3],Binder,monoubiquitination of histone H2B in the in vitro ubiquitination assay (protein gel blot) (histone H2B)
no binding,,,,"HUB1pm (HUB1 point mutant, Cys residues nr 1 and 2 of the C3HC4 RING domain changed into Ser) (enzyme, In TAP N-terminally TAP-tagged; also called HUBpm; At2g44950 Arabidopsis thaliana point mutation) MASTGEPDRKRRHFSSISPSEAAAAVKKQPFFWPSSEDKLDTAVLQFQNLKLSQKLEAQQVECSILEDKLSQIKEKQLPYNSSLKTVHKSWEKLTASVESCSVRVSDSSSGAHRFVNKEDGSSPAVKNDFINRLLETGATESSSSNICSNQMEENGVNTSSQMTQTLYNLVAATEDLRCLKDELYPTVLRTNLGKDLCGQLALSELESEIKSFRGDLDDVLVKFKSLSRELQSHRDADAKVRVDLKRIRGELEDEVVELQQCNGDLSALRAERDATAGAFFPVLSLGNKLATSDRERDKQRDLQDMETVLKELTVLASGRLQQLKNLHEERTKMLGKMSNLQNKSKSVRCISSSQACLSLKDQLEKSKEAVFQYMALLEKLQVEKDSIVWKEREINIKNELGDVSRKTSAVTDSRMASLDSEIQKQLDEKMRIKTRLGNISRERGRKEIFADMKALISSFPEEMSSMRSQLNNYKETAGGIHSLRADVQSLSGVLCRKTKEYEALQLRSADYASQLGDLNATVCDLKNSHEELKLFLDMYKRESTDARDIAEAKEQEYRAWAHVQSLKSSLDEQNLELRVKAANEAEAVSQQMLAAAEAEIADLRQKMDDCKRDVAKHSDILKSKHEEHGTYLSEIQTIGSAYEDIVPQNQRLLLQVTERDDYNIKLFLEGITSRQMQDTLLIDKYIMDKDIQQGSAYASFLSKKSSRIEDQLRFCTDQFQKLAEDKYQKSVSLENLQKKRADIGNGLEQARSRLEESHSKVEQSRLDYGALELELEIERFNRRRIEEEMEIAKKKVSRLRSLIEGSSAIQKLRQELSEFKEILKSKASNDRPKEVVITKCYHLFCNPCVQKLTGTRQKKCPTCSASFGPNDIKPIYI",shift of H2B by 10 kDa
,binds,binds,1e-24,"SEUSS, At1g43850 (other, Arabidopsis thaliana, UniProt Q8W234 1-877, looked up, As prey endogenous; as bait N-terminal GS-TAP fusion; in yeast two-hybrid an AD fusion) MVPSEPPNPVGGGENVPPSILGGQGGAPLPSQPAFPSLVSPRTQFGNNMSMSMLGNAPNISSLLNNQSFVNGIPGSMISMDTSGAESDPMSNVGFSGLSSFNASSMVSPRSSGQVQGQQFSNVSANQLLAEQQRNKKMETQSFQHGQQQSMQQQFSTVRGGGLAGVGPVKMEPGQVSNDQQHGQVQQQQQKMLRNLGSVKLEPQQIQAMRNLAQVKMEPQHSEQSLFLQQQQRQQQQQQQQQFLQMPGQSPQAQMNIFQQQRLMQLQQQQLLKSMPQQRPQLPQQFQQQNLPLRPPLKPVYEPGMGAQRLTQYMYRQQHRPEDNNIEFWRKFVAEYFAPNAKKRWCVSMYGSGRQTTGVFPQDVWHCEICNRKPGRGFEATAEVLPRLFKIKYESGTLEELLYVDMPRESQNSSGQIVLEYAKATQESVFEHLRVVRDGQLRIVFSPDLKIFSWEFCARRHEELIPRRLLIPQVSQLGSAAQKYQQAAQNATTDSALPELQNNCNMFVASARQLAKALEVPLVNDLGYTKRYVRCLQISEVVNSMKDLIDYSRETRTGPIESLAKFPRRTGPSSALPGPSPQQASDQLRQQQQQQQQQQQQQQQQQQQQQQQQTVSQNTNSDQSSRQVALMQGNPSNGVNYAFNAASASTSTSSIAGLIHQNSMKGRHQNAAYNPPNSPYGGNSVQMQSPSSSGTMVPSSSQQQHNLPTFQSPTSSSNNNNPSQNGIPSVNHMGSTNSPAMQQAGEVDGNESSSVQKILNEILMNNQAHNNSSGGSMVGHGSFGNDGKGQANVNSSGVLLMNGQVNNNNNTNIGGAGGFGGGIGQSMAANGINNINGNNSLMNGRVGMMVRDPNGQQDLGNQLLGAVNGFNNFDWNA",
